Data from PMC8609903, “Novel Lung Targeting Cell Penetrating Peptides as Vectors for Delivery of Therapeutics” (Research Square, 2021).

Columns and labels:
[1] = test system: human bronchial epithelial cells
wild-type CD1 mice = test: Biodistribution time course of Cy5.5 labeled R11A, ex-vivo IVIS imaging; conditions: 5mg/Kg Cy5.5 labeled R11A intravenous, 15-360 minutes, n=3
Experimental: Mice were euthanized at the end of the circulation period, perfused and fixed as before, and multiple organs harvested and ex-vivo IVIS imaging performed immediately.
Wild-type, 6-week old, female CD1 mice were purchased from Charles Rivers. After at least 48 hours of acclimatization after arriving in the animal colony, mice were weighed and anesthetized with an intraperitoneal injection of a 1:1 cocktail of Ketamine:Xylazine at 1–2μL/gm body weight. […] At the end of circulation time, mice were euthanized using inhalational CO2 as per IACUC-approved protocol, chest cavity opened, right atrium nicked and 3–5ml of 4% formalin injected through the left ventricular apex to perfusion fix the animals. Various organs were harvested, rinsed once in PBS and placed on a petri dish to be imaged using IVIS (Perkin- Elmer – S5 instrument). All mice were imaged using identical instrument settings (stage position, exposure time, binning, F-stop etc.). […] All time-points were tested in at least triplicate (n=3).

[2] = test system: Rat cardiomyoblast H9C2 cells; conditions: 10μM peptide, 30 minutes, 37°C, N-terminal Cy5.5, C-terminal amide, FACs, biological triplicates, p<0.001
[3] = test system: SARS-CoV-2 (strain USA_WA1/2020); format: cell-based; conditions: concentrations of 2, 0.2, and 0.02 μM, human bronchial epithelial cells

Row | Compound | uptake at 4°C [1] | fluorescence in kidneys (wild-type CD1 mice) | fluorescence in liver (wild-type CD1 mice) | Cy5.5 intensities, fold higher [2] | reduction of SARS-CoV-2 titers compared to virus controls [3]
1 | APWHLSSQYSAT ({Cy5.5}-APWHLSSQYSAT-NH2) [R11A] | very little uptake | little fluorescence | decreased over time | – | –
2 | APWHLSAQYSRT ({Cy5.5}-APWHLSAQYSRT-NH2) [S7A] | very little uptake | – | – | ~3 fold | –
3 | CCC(CC)COC(=O)[C@H](C)N[P@](=O)(OC[C@H]1O[C@@](C#N)(c2ccc3c(N)ncnn23)[C@H](O)[C@@H]1O)Oc1ccccc1 [Remdesivir] | – | – | – | – | statistically significant
